# Laboratory results as given in patent publication US20240209106A1 (BEIGENE SWITZERLAND, published 2024).
# T1: TNFRSF1B(CD120b) (UniProt P20333 23-257)
# T1 construct: Bought protein
# T1 sequence (looked up): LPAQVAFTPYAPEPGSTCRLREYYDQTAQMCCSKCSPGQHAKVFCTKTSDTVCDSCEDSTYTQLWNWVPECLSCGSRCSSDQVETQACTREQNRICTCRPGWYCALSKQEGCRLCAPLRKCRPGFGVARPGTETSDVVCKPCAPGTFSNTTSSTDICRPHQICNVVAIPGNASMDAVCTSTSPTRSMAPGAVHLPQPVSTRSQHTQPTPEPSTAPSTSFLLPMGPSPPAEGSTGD
# T2: TNFRSF1A(CD120a) (UniProt P19438 22-211, limits assumed)
# T2 construct: Bought protein
# T2 sequence (looked up): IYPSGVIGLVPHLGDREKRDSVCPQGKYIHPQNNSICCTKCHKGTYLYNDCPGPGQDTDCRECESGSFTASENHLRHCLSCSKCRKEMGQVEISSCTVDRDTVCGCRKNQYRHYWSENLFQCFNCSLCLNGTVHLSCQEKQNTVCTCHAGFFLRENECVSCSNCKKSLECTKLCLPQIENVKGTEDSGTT
# T3: TNFRSF7(CD27) (UniProt P26842 21-192, limits assumed)
# T3 construct: Bought protein
# T3 sequence (looked up): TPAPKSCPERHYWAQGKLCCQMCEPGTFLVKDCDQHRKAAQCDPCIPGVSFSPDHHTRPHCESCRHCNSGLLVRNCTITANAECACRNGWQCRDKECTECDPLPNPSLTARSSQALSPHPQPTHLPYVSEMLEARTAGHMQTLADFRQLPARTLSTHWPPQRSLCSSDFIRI
# Experiments:
# human CD137 ECD-mIgG2a = human CD137 ECD-mIgG2a (human); test: competition ELISA on coated human CD137 ECD-mIgG2a: BGA-5623 (IgG4) in the presence of serially diluted human CD137 ligand ECD-mIgG2a, bound antibody detected with HRP anti-human IgG; competitor: BGA-5623 (IgG4)
# Sequence of human CD137 ECD-mIgG2a (human) (chain, as listed by the source limits assumed): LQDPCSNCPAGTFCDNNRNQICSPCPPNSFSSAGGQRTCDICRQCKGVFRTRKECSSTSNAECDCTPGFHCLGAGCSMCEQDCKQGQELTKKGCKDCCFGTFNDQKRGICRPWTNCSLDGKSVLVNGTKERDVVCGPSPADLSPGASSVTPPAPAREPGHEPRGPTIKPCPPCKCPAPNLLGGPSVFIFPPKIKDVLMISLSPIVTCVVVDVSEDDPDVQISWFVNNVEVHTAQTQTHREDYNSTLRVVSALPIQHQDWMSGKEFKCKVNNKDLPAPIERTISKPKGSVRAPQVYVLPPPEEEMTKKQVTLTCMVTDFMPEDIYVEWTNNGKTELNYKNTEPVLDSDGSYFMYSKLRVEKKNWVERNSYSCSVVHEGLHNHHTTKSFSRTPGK
# [1] = biological target: T4, full-length human CD137 (huCD137) (human, UniProt Q07011 24-255); test: flow cytometry ligand competition on Hut78/huCD137: BGA-4712 (VH-Fc) in the presence of serially diluted human CD137 ligand-mIgG2a, bound BGA-4712 detected with anti-hu IgG Fc; competitor: BGA-4712 [panel C]
# T4 construct: On transduced Hut78 cells (Hut78/huCD137), transiently on HEK293 cells, or natively on PBMC/T cells; also called TNFRSF9; 4-1BB
# T4 sequence (Q07011 24-255 limits assumed): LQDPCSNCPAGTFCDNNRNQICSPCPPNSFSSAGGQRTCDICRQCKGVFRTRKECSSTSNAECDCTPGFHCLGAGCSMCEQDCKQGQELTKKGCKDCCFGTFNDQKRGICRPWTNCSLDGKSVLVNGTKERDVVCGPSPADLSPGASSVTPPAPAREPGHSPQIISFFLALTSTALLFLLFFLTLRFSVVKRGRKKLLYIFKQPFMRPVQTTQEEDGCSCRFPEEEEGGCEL
# [2] = biological target: T4, full-length human CD137 (huCD137); test: flow cytometry ligand competition on Hut78/huCD137: human CD137 ligand ECD-mIgG2a in the presence of serially diluted antibody, ligand detected with goat anti-murine IgG-APC; blocked ligand: m5
# TNFRSF1B(CD120b) = biological target: T1, TNFRSF1B(CD120b); test: antigen ELISA, receptor coated at 10 ug/ml, detection with HRP anti-human IgG
# TNFRSF1A(CD120a) = biological target: T2, TNFRSF1A(CD120a); test: as above
# human CD40 ECD = biological target: T5, human CD40 ECD (human, UniProt P25942 21-194); test: as above
# T5 construct: also called TNFRSF5(CD40); huCD40
# T5 sequence (P25942 21-194 limits assumed): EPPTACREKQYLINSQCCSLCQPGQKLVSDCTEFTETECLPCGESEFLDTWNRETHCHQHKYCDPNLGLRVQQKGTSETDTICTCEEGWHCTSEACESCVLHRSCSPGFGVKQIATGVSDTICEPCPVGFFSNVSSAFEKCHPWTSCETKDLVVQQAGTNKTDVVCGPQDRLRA
# TNFRSF7(CD27) = biological target: T3, TNFRSF7(CD27); test: as above
# [3] = biological target: T6, Glypican 3 (GPC3) on cells (human, UniProt P51654 25-554); test: flow cytometry on HepG2 cells [panel C]
# T6 construct: whole, on cells; also called HepG2; Huh7
# T6 sequence (P51654 25-554 limits assumed): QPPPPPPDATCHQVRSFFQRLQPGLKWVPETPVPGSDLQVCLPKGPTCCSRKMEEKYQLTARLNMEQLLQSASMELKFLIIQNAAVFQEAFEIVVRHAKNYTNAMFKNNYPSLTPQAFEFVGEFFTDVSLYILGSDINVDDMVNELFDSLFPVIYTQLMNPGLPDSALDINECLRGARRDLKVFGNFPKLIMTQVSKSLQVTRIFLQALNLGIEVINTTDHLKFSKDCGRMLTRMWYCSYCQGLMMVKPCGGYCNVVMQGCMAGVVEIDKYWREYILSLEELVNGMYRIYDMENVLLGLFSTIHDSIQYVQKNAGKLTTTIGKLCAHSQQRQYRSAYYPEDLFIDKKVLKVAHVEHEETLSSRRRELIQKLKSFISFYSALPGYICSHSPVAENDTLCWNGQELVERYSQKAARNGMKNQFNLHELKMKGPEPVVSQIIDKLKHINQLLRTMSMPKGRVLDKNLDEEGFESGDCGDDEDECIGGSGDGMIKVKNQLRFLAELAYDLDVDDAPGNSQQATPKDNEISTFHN
# [4] = biological target: T7, human CD137 ECD (AA 24-183) (human, UniProt Q07011 24-183); test: method and huCD137 construct not stated
# T7 construct: also called huCD137
# [5] = biological target: T8, GPC3 (protein used for the TAA KD of Table 23) (UniProt P51654 25-559, limits assumed); test: method and GPC3 construct not stated (TAA KD)
# T8 construct: also called Glypican 3
# T8 sequence (P51654 25-559 limits assumed): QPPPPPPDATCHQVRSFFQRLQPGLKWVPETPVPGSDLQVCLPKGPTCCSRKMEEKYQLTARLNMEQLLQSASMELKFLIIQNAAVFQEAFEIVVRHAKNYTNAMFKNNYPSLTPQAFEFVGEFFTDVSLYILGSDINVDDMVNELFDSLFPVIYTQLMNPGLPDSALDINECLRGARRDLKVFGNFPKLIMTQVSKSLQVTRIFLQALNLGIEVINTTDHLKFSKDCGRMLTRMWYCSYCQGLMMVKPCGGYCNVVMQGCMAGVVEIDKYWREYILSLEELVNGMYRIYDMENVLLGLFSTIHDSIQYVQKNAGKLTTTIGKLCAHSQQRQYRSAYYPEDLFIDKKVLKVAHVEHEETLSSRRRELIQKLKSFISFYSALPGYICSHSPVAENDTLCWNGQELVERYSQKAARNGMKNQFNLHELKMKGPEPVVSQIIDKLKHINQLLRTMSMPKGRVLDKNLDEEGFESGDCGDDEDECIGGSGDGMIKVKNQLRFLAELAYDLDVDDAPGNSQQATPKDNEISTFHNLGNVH
binder,measurement,setting,value
"human CD137 ligand-mIgG2a (Fc fusion, also called human CD137 ligand ECD-mIgG2a; huCD137 ligand) EPRGPTIKPCPPCKCPAPNLLGGPSVFIFPPKIKDVLMISLSPIVTCVVVDVSEDDPDVQISWFVNNVEVHTAQTQTHREDYNSTLRVVSALPIQHQDWMSGKEFKCKVNNKDLPAPIERTISKPKGSVRAPQVYVLPPPEEEMTKKQVTLTCMVTDFMPEDIYVEWTNNGKTELNYKNTEPVLDSDGSYFMYSKLRVEKKNWVERNSYSCSVVHEGLHNHHTTKSFSRTPGKGGGGSREGPELSPDDPAGLLDLRQGMFAQLVAQNVLLIDGPLSWYSDPGLAGVSLTGGLSYKEDTKELVVAKAGVYYVFFQLELRRVVAGEGSGSVSLALHLQPLRSAAGAAALALTVDLPPASSEARNSAFGFQGRLLHLSAGQRLGVHLHTEARARHAWQLTQGATVLGLFRVTPEIPAGLPSPRSE",IC50 (read off the curve),human CD137 ECD-mIgG2a,~1 mg/L
same,IC50,[1],0.42 mg/L
"Urelumab analog (antibody, human IgG4 S228P, kappa, V domains shown) VH: QVQLQQWGAGLLKPSETLSLTCAVYGGSFSGYYWSWIRQSPEKGLEWIGEINHGGYVTYNPSLESRVTISVDTSKNQFSLKLSSVTAADTAVYYCARDYGPGNYDWYFDLWGRGTLVTVSS VL: EIVLTQSPATLSLSPGERATLSCRASQSVSSYLAWYQQKPGQAPRLLIYDASNRATGIPARFSGSGSGTDFTLTISSLEPEDFAVYYCQQRSNWPPALTFGGGTKVEIKR",IC50 (read off the curve),[2],~0.03 mg/L
same,binding result,TNFRSF1B(CD120b),no binding
same,binding result,TNFRSF1A(CD120a),no binding
same,binding result,human CD40 ECD,no binding
same,binding result,TNFRSF7(CD27),no binding
"BE-830 (GPC3 × CD137) (bispecific antibody, human IgG1, kappa, also called CD137×GPC3; GPC3×CD137 multispecific antibody BE-830) heavy: not shown light: DVVMTQSPLSLPVTPGEPASISCRSSQSLVHSNRNTYLHWYLQKPGQSPQLLIYKVSNRFSGVPDRFSGSGSGTDFTLKISRVEAEDVGVYYCSQNTHVPPTFGQGTKLEIKRTVAAPSVFIFPPSDEQLKSGTASVVCLLNNFYPREAKVQWKVDNALQSGNSQESVTEQDSKDSTYSLSSTLTLSKADYEKHKVYACEVTHQGLSSPVTKSFNRGEC",EC50 (read off the curve),[3],~0.7 mg/L
same,Kd,[4],0.182 µM
same,Kd,[5],0.00147 µM
